From patent US20090175784A1

Legend:
[1] = target: human αVβ3/5 integrins on human tumor cells (A375.S2, MDA-MB-231, A2780, HT29, A549) (human) (UniProt P06756); experiment: cell-based or functional assay; design: IC50 of doxorubicin, integrin targeted liposome-entrapped dox 90:1, murine melanoma B16-F10 cells (negative control): unit not given beside the values
[2] = target: murine αVβ3/5 integrin (murine melanoma cell line B16F10, negative control) (murine) (UniProt P43406); experiment: cell-based or functional assay; design: IC50 of doxorubicin, integrin targeted liposome-entrapped dox 90:1, murine melanoma B16-F10 cells (negative control): unit not given beside the values
murine αVβ3/5 integrin (murine melanoma cell line B16F10, negative control) (murine), sequence (P43406 31-1044, form in doubt, chain 1 of 3): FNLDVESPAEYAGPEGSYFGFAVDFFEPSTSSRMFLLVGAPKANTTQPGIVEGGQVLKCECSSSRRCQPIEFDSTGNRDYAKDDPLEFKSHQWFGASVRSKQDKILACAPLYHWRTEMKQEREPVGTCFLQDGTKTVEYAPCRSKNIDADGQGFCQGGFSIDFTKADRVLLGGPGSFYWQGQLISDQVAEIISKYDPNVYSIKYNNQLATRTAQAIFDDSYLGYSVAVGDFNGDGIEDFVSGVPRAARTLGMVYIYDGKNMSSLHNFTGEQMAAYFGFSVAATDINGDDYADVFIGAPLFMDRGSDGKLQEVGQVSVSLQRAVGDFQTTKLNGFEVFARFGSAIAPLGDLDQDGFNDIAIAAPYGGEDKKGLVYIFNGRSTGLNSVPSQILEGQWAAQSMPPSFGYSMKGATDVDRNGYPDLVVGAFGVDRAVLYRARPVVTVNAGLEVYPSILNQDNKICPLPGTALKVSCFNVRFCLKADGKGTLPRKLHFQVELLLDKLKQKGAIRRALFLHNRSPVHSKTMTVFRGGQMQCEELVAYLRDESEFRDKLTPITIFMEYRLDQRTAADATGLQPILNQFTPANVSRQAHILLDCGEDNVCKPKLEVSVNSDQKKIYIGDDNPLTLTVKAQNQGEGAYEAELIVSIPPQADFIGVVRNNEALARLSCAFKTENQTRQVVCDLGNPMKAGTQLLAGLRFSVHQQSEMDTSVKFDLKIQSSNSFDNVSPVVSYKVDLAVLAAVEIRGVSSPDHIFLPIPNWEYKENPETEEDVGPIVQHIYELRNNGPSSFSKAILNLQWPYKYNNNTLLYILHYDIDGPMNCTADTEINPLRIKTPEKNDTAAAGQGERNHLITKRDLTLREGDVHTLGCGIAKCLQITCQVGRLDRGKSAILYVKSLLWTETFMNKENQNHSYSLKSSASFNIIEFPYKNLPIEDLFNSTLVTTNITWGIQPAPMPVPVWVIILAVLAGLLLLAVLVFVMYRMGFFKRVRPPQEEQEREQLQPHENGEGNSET
murine αVβ3/5 integrin (murine melanoma cell line B16F10, negative control) (murine), sequence (O54890 26-787, form in doubt, chain 2 of 3, further chain): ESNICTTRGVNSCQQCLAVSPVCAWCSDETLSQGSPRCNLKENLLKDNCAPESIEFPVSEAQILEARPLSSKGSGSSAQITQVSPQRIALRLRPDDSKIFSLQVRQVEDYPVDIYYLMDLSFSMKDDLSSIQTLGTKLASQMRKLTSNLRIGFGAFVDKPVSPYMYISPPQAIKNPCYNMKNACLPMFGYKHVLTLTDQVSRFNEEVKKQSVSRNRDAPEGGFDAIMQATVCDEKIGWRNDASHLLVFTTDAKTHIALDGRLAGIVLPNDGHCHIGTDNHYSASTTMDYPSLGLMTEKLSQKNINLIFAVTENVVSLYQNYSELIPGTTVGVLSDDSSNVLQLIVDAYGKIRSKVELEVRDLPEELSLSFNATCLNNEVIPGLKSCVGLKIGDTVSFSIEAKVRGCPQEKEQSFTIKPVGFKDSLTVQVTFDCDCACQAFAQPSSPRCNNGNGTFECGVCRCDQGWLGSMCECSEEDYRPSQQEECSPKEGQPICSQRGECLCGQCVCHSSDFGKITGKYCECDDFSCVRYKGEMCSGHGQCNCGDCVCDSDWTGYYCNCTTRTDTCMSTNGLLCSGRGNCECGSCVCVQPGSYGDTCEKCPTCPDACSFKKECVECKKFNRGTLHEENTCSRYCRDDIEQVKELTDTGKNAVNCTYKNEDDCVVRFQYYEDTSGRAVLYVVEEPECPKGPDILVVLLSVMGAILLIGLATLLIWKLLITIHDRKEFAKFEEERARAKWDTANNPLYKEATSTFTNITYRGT
murine αVβ3/5 integrin (murine melanoma cell line B16F10, negative control) (murine), sequence (O70309 24-798, form in doubt, chain 3 of 3, further chain): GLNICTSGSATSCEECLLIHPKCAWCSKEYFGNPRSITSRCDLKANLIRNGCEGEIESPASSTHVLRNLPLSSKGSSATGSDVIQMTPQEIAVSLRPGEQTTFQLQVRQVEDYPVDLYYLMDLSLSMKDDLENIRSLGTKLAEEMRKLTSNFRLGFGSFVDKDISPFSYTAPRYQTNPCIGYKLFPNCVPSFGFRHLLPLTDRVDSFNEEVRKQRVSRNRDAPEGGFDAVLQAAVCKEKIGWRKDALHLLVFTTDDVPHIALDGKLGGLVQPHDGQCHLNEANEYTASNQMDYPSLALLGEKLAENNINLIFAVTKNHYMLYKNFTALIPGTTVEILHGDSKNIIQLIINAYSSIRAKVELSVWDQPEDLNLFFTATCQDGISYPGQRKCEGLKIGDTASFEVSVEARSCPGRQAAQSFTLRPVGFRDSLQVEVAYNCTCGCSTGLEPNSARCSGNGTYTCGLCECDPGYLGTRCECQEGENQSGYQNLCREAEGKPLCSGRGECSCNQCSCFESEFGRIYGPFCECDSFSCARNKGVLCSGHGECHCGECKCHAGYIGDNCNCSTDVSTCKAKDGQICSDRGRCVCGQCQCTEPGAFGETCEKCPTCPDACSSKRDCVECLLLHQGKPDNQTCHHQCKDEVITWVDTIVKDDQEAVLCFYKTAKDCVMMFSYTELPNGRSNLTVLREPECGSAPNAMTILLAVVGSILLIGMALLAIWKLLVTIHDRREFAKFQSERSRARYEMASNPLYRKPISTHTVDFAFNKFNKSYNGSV

Substance “CNTO95 Fab′ (from pepsin F(ab′)2, reduced and reoxidized) conjugated to MalPEG-DSPE on the surface of liposomes” has an Increase (ratio of IC50 of liposome-entrapped dox to IC50 of integrin-targeted 90:1), breast cancer MDA-MB-231 cells [1] of 5 fold, an Increase (ratio of IC50 of liposome-entrapped dox to IC50 of integrin-targeted 90:1), colon cancer HT29 cells [1] of 1.1 fold and an Increase (ratio of IC50 of liposome-entrapped dox to IC50 of integrin-targeted 90:1), lung cancer A549 cells [1] of 1 fold. The Increase (ratio of IC50 of liposome-entrapped dox to IC50 of integrin-targeted 90:1), melanoma A375.S2 cells [1] was 29 fold, the Increase (ratio of IC50 of liposome-entrapped dox to IC50 of integrin-targeted 90:1), ovarian cancer A2780 cells [1] was 29 fold and the IC50 of doxorubicin, integrin targeted liposome-entrapped dox 90:1, murine melanoma B16-F10 cells (negative control) [2] was over 200. For the same substance, the Increase (ratio of IC50 of liposome-entrapped dox to IC50 of integrin-targeted 90:1), murine melanoma B16-F10 cells (negative control) [2] was 1 fold.
